What was measured:
[1] = molecular target: ILT4 receptor on dendritic cells of ILT4 transgenic mice (UniProt Q8N423); test: cell-based or functional assay
[2] = molecular target: ILT2-PILRβ chimera on NFAT-GFP reporter cells (UniProt Q8NHL6); test: cell-based or functional assay
Sequence of ILT2-PILRβ chimera on NFAT-GFP reporter cells (Q8NHL6 24-461, change not shown): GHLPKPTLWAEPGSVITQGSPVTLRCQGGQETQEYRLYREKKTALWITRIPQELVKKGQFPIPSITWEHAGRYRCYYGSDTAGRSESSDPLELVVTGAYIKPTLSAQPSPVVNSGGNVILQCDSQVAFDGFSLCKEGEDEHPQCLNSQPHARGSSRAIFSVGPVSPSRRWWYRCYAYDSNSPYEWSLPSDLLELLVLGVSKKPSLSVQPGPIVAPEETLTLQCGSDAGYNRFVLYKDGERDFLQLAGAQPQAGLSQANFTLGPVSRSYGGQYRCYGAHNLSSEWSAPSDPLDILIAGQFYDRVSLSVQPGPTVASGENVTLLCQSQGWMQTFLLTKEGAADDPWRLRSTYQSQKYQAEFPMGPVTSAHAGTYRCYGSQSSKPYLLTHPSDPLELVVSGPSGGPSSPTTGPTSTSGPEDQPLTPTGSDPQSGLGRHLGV

Sequence of ILT4 receptor on dendritic cells of ILT4 transgenic mice (Q8N423 22-597 limits assumed): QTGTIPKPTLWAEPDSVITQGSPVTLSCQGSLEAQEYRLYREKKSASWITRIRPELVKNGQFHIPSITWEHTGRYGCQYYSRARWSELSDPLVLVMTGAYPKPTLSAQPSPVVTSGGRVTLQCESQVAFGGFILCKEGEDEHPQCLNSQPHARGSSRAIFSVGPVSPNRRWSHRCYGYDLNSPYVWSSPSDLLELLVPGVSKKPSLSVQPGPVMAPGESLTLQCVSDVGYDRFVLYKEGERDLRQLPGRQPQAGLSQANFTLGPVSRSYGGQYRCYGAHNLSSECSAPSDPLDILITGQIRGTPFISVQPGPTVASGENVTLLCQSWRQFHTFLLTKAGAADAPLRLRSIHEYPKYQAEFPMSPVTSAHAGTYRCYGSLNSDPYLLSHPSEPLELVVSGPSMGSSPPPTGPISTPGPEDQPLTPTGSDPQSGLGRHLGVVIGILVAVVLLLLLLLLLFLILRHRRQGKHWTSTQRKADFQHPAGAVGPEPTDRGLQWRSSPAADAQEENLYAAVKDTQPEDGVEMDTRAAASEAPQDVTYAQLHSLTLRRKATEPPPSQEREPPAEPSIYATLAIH

Substance | fold increase of IL-6 transcript in ILT4-positive BMDCs (gene array) [1] [fold] | MFI of GFP at 100 ng/ml immobilized ligand (NFAT-GFP reporter) [2] [MFI] | percentage of GFP-positive cells at 100 ng/ml immobilized ligand (NFAT-GFP reporter) [2] [%] | mean fluorescent intensity (MFI) of GFP at 100 ng/ml immobilized ligand (NFAT-GFP reporter) [2] [MFI]
HLA-G1 tetrameric complexes (from UniProt P17693 25-300; P61769 21-119) (ligand) | 9.3 |  |  | 
HLA-G5 dimer (from UniProt P17693 25-338; P61769 21-119) (ligand) | 8.9 | 9.9 | 56.8 | 
HLA-G5 monomer (from UniProt P17693 25-338; P61769 21-119) (ligand) |  |  | 5.6 | 7.8

Source: patent US20110135672A1
